The text below walks through data of article doi:10.1101/2020.07.27.223248 (bioRxiv, 2020).

The data set concerns the molecule itself. As to the kind of experiment: cryo-EM structure.

B1: FljK T103C N130S, straightened flagellar filament (natural protein, C. crescentus, UniProt P18913 1-273, looked up)
chain: MALNSINTNAGAMIALQNLNGTNSELTTVQQRINTGKKIASAKDNGAIWATAKNQSATAASMNAVKDSLQRGQSTIDVALAAGDTITDLLGKMKEKALAASDCSLNTASFNALKSDFDSLRDQIEKAATSAKFNGVSIADGSTTKLTFLANSDGSGFTVNAKTISLAGIGLTTTSTFTTAAAAKTMIGTIDTALQTATNKLASLGTSSVGLDTHLTFVGKLQDSLDAGVGNLVDADLAKESAKLQSLQTKQQLGVQALSIANQSSSSILSLFR
modifications: post-translational modifications on conserved surface threonine residues, likely O-linked glycans (positions not given)
For the protein B1, the binding result was “binds”.
